Binding signal data for one substance are collected here from publication PMC7069974.

The target of this data set is His-flXPA (human) (UniProt P23025). Description: AFM. Particulars: single dG-C8-AAF at 30% from 3' end; EMSA: 8 nM DNA, 20 mM HEPES pH 7.5, 150 mM NaCl, 5 mM DTT, 0.5 mg/ml BSA, 5% glycerol, 25 min at room temperature; gel 5% native, 0.5x TBE, 4 C. AFM: 100 nM …; scale: fold specificity for dG-C8-AAF over non-damaged DNA. In general terms: A gel shift assay detects complexes by their altered migration in electrophoresis.
Chain of His-flXPA (human) (P23025 whole entry): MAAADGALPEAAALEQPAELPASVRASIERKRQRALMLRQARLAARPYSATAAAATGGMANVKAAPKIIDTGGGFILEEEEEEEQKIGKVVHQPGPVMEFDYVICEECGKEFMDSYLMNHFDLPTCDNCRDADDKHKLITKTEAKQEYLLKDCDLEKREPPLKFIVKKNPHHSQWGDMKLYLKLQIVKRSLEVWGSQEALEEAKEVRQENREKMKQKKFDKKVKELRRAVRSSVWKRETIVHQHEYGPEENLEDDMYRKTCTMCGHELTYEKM

Substance AAF538 came in with a binding signal of 660.
